From the DeepSol protein solubility set

Assay: soluble on expression in E. coli; label from the status in PepcDB or PDB records

| Sequence | soluble on expression in E. coli |
| --- | --- |
| MSLEVKLNENERIDDLQCKGLKIIQKKAGFCFGLDAVLLANFADIKKGDTVIDLGTGTGIIAILIAGKTEAKSIIGLEIQEEMAEMAQRSVKLNNLEDRVKIVCGDIKNSVEMFGASKFDVVVTNPPYMNQGGGLLNISDTKAISRHEIKCTLEDVIKASSKLLVPGGQFAMVHRPDRLVDIIWLMRKYSIEPKYLQFVHPYPRKKANLILIKGARQGRVQLKMLEPLYVYDENGNYSKEIDNIYGREVRNEGHHHHHH | soluble |
| MGSDKIHHHHHHMDAPYVSMWTSCSGGCSNNMYQLPANYPMKEKRDNEAEHTEGRLSKNERIERQLNSLYDFRFNIVKSRTEYRAANTSGLYQPVTKFALNSFRRKLDVTAGITTSAENIRMILESDFANKVHPIREYLTALPLLNPAGHGYIKKLLNTVQVANPGEWEEYFTKWLVGVVANAMNDTGCQNHTCLVLTGDNQGQFKTWWLDNLCPSSLKNYLFTGKIDPQSKDILTLIAEYLFINIDDQLKELNKQNENALKNLITTPAVKYRRPYDIYIEEYPHLASFMASVNGNEFLTDPTGNRRFLPFEVLHIDKPTAESINMDNVYSEIMYLYRQGVRYWFNDAEIEELHLTNAEFEVQTVEFEMLMQYFEKPTEEEESLFFMTTAQILTCLRDVCPMQLSEKRLGEALRKAGFKRVQKRISNCNYSVYGYRIKPVSIPYTDNDYG | not soluble |
| GREPADMVLKGGRFFDLVTGELVASDIAICGDTVVGTCGDYKGRHEIDISGKIVVPGFIDTHLHIESSLVTPHEFDRCVLPYGVTTAICDPHEIANVLGAEGLQFFLDSAMETIMDIRVQLSSCVPATHLETSGADLPIEKLLPFRNHPKVIGLAEFMNFPGVIHKDPVCMAKLEAFQGQHIDGHAPLLSGAALNGYLAAGIRTEHECTSAAEALEKIRKGMHILVREGSVSKDLHALMPIITERLSPYLALCTDDRNPLDIAEQGHLDYMIRTAIASGVEPLAIYRAASISAAKAFGLRDRGLVAPGWRADLVVIDTLQNCKASMVLSGGRLVDDALFATRKPVAPVGLDSVKARPVLASHFGVPVTEGETPVMGVLPGKIITEHRRYKLPTDGNQTTVDLENDIIKVAVIERHGKNGNHANGFVQGFGLKKGAIASTVGHDSHNICVVGVSEDDMALAANRLGDIKGGFVVVEDGRVTGEIALPVAGLMSLEPYETVRDTLHTLRKAAYALGTTLEEPFLQVAFLPLPVIPHLKISDMGMVDVDRFA | not soluble |
| MSLKIFDAHCDVLLQLWSAQGRKDFKHDSQLHITFEQLKRRKGSIQCFAIYVPETVAYENRFEVALQMVDIFYNEILSLPGVKFIQTKDDINMLKQDEIGAILTLEGCEAIGKDAMKIRLLYRLGVRSFGLTWNYANLLADGALETRGAGLTTSGKHVVQELNALHVWTDVSHLNERSFWDVIEIAKNPIASHSNCMKLCQHPRNLNDEQLKALIKRNGMIGVTFVPQFLTNEKQANVADIIRHIEYICSLGGENNIGFGSDFDGILETVVNVSAYRDYENVVNELCKHYAASTVERFLYDNFVEHISEGHHHHHH | not soluble |
| MSLKAVYIQKTGGPATIIVGSLPVPKVRPKSVLIKVIAASINYVDLFIRSGIYQTDLPNPYILGRDAIGQVVEIGKDVIQFKVGDCVWTNSMGYDGRQGITSEYALIPEERLFLTPKNADSLKLIGAVHSAATATIVLQDIMELKPKQKLLIEGAAGHVGSKLVYLANEMGAEVVTTASLKDFSRLKQLSDAICFDYRDKSLFKKLKSAYPDGFDHIIDTSGEIPLQFNCDLLAPKGVISLITAPKDSQFDSRQFYMNCQQMKGFVISHASLKQLKKAGRILNDAFRQGQLLEEDMVIKKFDKAAEAHDLMETKKENRKIILVEGHHHHHH | not soluble |
| SNASVRPSLWEFSSRVGMHVGASTPVPVPQAMEHVYAWYPRLNPMVQLSASRRLLAGSPWAVNVGIAVEKKGMEATTRVKDMKVAIVSDSPYAGNPDEEYPGLFTGDNNTEIRLGYLTIPVQAEYNMLKDRLKLRGGLYTSLLLESSFRVIIDGTMVYDDPKLGTAQMDLRELNFSDKIKGADFGVIIGADYYFARQ | not soluble |
| MVEVKPIIIDGHPFIAVSVQLPKTNLLAVAGEKGYIMCGALDVALLNEKLRDRGIIAGRAVGVRTIEQLLEAPLESVTVAALELGIEEGMKGREALLKMR | not soluble |
| MMYQVKGYFSSLKGSYYEIGKQQGEFVKQNPYLIPQFIHEENVISNNHWTESRNILNKHCPGINEEIEGFCEVLKIPSKNMMYYYQTLLKAGCSHCAVLPKKTDLEHTYVLRNYDLSPVIDDMRFCSTHVEGAYAHSGFSTQYFGRTEGINEHGLAVTFSACGQPVGNIAGLRKPMVSGLQCFAVIRLLLEKCKNVQEAKLLIEEIPIASNINLIIADPLNAAYIEIFDGHKSTITIDGEKQAFIVSTNHAVSSSIQKLNNRKLEQSTKRYHLLHEHLNRCEQVSIESLKKLVEEEYPAGLTVHNYEEWFGTLHSVLFDLHDRTMKICFGSPLLNDWYSLKVGGSMPFSEVNVNFKNKTYTDFWKEDKNELIPKRLEHHHHHH | soluble |
| MASAHQTPADANGGESRDEILRAAAELFMEFGYAATSIDAVAQRLGSTKGRIYHHYRSKADLFFDVQVTAMNRLTAQVEPLAREGGGAVGRLAAMALRHTQILLKEMPMQKVAVQGLERHLLEASSAAKRLRAVVKMRDDYEQMFVEVIDDGIREGSFVDLPPRLLSKPFFGALNWATVWYSQRRLQSEEAIDDIAHALAAYALRGLLKDSNDEAARETALFRYDLG | not soluble |
| DIQMSQSSSSFSVSLGDRVTITCKASEDIYSRLAWYQQKPGNAPRLLISGATSLETWVPSRFSGSDSGKDYTLSITSLQTEDVATYFCQQYWSPPPTFGGGTKLEIKRADAAPTVSIFPPSSEQLTSGGASVVCFLNNFYPKDINVKWKIDGSERQNGVLNSWTDQDSKDSTYSMSSTLTLTKDEYERHNSYTCEATHKTSTSPIVKSFNRNEC | soluble |
| MAHHHHHHMSKSDLFNDAQVPMRATVLRFGDDVEGASYPEAALTIDDAAVPAEAKVEVYHDGDNSGSAHESVPHHAQDLRHDFTSGILNCHESCAVCLDACLCMYCTASAHHNFLMNDTEGLYLPVCWGLFCVDVGLSAVSSYLPSSLHFHTYFMRSAIRRRYNLHSAGAPVNSNTHGSSSSGCDCTTESMLDLLTVCFCLPCAIAQHQREIMHQGDWCGGVFSNRYSLQTPATVHTI | not soluble |
| MVKQIESKTAFQEALDAAGDKLVVVDFSATWCGPCKMIKPFFHSLSEKYSNVIFLEVDVDDAQDVAPKYGIRGIPTLLLFKNGEVAATKVGALSKGQLKEFLDANLV | soluble |
| MAQSVPPGDIQTQPGTKIVFNAPYDDKHTYHIKVINSSARRIGYGIKTTNMKRLGVDPPCGVLDPKEAVLLAVSCDAFAFGQEDTNNDRITVEWTNTPDGAAKQFRREWFQGDGMARRKNLPIEYNP | not soluble |
| GSKVVKFSYMWTINNFSFCREEMGEVIKSSTFSSGANDKLKWCLRVNPKGLDEESKDYLSLYLLLVSCPKSEVRAKFKFSILNAKGEETKAMESQRAYRFVQGKDWGFKKFIRRGFLLDEANGLLPDDKLTLFCEVSVVQDSVNISGQNTMNMVKVPECRLADELGGLWENSRFTDCCLCVAGQEFQAHKAILAARSPVFSAMFEHEMEESKKNRVEINDVEPEVFKEMMCFIYTGKAPNLDKMADDLLAAADKYALERLKVMCEDALCSNLSVENAAEILILADLHSADQLKTQAVDFINYHATDVLETSG | soluble |
| RLKALRKEQGKALKKDKKLAEPKARVYVLDFDGDIKASATESMRHEITALLTLATDKDEVVLRLESGGGMVHSYGLASSQLARIRQAGIPLTVCIDKVAASGGYMMACIGNKIISAPFAILGSIGVVAQLPNVNRLLKKHDIDFEVLTAGEYKRTLTVFGENTEKGREKFQQDLDITHDLFKNFVASYRPQLSIDEVATGEVWLGMAAVDKLLVDELKTSDE | not soluble |
| LPNITILATGGTIAGGGDSATKSNYTVGKVGVENLVNAVPQLKDIANVKGEQVVNIGSQDMNDNVWLTLAKKINTDCDKTDGFVITHGTETMEETAYFLDLTVKCDKPVVMVGAMRPSTSMSADGPFNLYNAVVTAADKASANRGVLVVMNDTVLDGRDVTKTNTTDVATFKSVNYGPLGYIHNGKIDYQRTPARKHTSDTPFDVSKLNELPKVGIVYNYANASDLPAKALVDAGYDGIVSAGVGNGNLYKSVFDTLATAAKTGTAVVRSSRVPTGATTQDAEVDDAKYGFVASGTLNPQKARVLLQLALTQTKDPQQIQQIFNQY | soluble |
| GPGSMPADEAQAPTQTEVYDRLKWNGWGVEDVQMQIDDENPLWVRHVDGKPIKNLLEFLYQEISGGVGPKEIPPLSPSIPLEKALAKLNKANINEAFMKDISAVLEKSQIRPDGKSRLCHIAGKNYRDLWRVRKGMVEHAPDCILLPNSHKDCVEIMRLAHKHNVVVIPFGGGTNVTGGVEADPFERARMIISVDMRRMNRMISIDRESRLATFETGVLGPDLDAQLFRHGFMLGHDPDSYIYSTLGGWIGARGSGAMSNQYGDIEDMVVAVKVATPTGIIETPTTSRTCGVDLNGLFIGSEGSFGIITEATIKLETIPETKLYEGYLFPTFEAGFSAFYTCTAKGIHPCTMRLYDEDDFRMSMAMSTTKHSFFQRLVSMGVKSFLERYRGWNLRRISLVIVGFEGTPDRVKFQRSETAAVFKQYGGVGVGRSAGATWQDKKYDLPYIRDFALSLSHWADVFETSVLYSQAIPCWRAVKAAVRQVWKEHGHRGWIGCHTAHQYKYGCCLYFTFASAQKDDMDMKIFLAIKKRATEAMLAHTGNLTHHHGIGYEHVPWMSRYMGPDALDLLFAVKQKVDPKNICNPGKLLPSPPRENESAAALKARQQRELMFDKMGVPGAVASHI | not soluble |
| MTAEILVVGSILPSDKFFCFLMGPAPVFPNSRKPATLDANSDEQTLRPYFKTKVEQAEQTVAEKSINVRRLMAQQKELNGKVRLLKEEISHLHEQGSHVGEVCKAMDKKKVLVKNHPDGKYIVDVAASVDISTLAAGTRVALRADNYAIHEVLPSKVDPLVSLMMVEKVPDSTYEMVGGLDTQIKEIKEVIELPVKHPELFDALGIAQPKGVLLYGPPGTGKTLLARAVAHHTECTFIRVSGSELVQKFIGEGARMVRELFVMAREHAPSIIFMDEIDSIGSSRVEGSRGGDSEVQRTMLELLNQLDGFEATKNIKVIMATNRIDILDSALLRPGRIDRKIEFPAPDEKARAQILKIHSRKMNLMRGIRMDKIAEQIPGASGAEVKSVCTEAGMFALRERRIHVTQEDFEMAVGKVMQKDSEKNMSIKKLWK | not soluble |
| MSEIKTDDPKRGIKLRGADKTARIPIKVVPLQEKLKKPEWIRAKLPSRKFFEIKDILREQKMHTVCEEASCPNIGECFSKGTATFMIMGDICTRRCPFCDVGHGRPNMLDPDEPRNLAESVKAMNLRYVVITSVDRDDLRDGGAQHFADCIKAIRETSPNTKIEILVPDFRGRLDIALKILAETPPDVMNHNLETHPSLYRKARPGANYQHSLDLLKRYKEMMPHIPTKSGIMVGLGETDEDVREIMRDMRAHNIEMITIGQYLQPSDGHLPVLRYVTPEQFKIFEKEAYELGFSNAAIGAMVRSSYHADEQAAEALRESHGGCGHH | not soluble |
| MGSDKIHHHHHHDDTLTSGTITIAVDETFRPIIEEELQVFYALTPDATVHPIYCSEVEAMKLLLADSVRLAITTRQLTRQETAYLNDKKFFPVSVKMATDGLALIVNKQNTDSLITVDQFKEILTGKVTDWKQLNPASRLGELQLVFDNPNSSTVHYVLDSICGGMPLSKDLKAQKTNPEVISYVAKNPAALGVIGVNWIGNPADSTRLSFNDVIRIMAVSRADSATVGNSFKPYQAYLALNQYPLTRNVYILLNDPKSGLPSGLTSFLTDFRGQRIILKSGLVPATAAVRIVDVKEE | not soluble |
| MNRLSIFVDGNNMFYAQQKNGWFFDPRRVLEYFKHEQSETTLINAFWYTGLKDPQDQRGFRDALISLGYTVRTKILKEYYDDTSGRYSQKANLDIEIVVDMFNTVDQYDRVVLFSGDGDFERAIELLRSKNTHITVVSTEGMIARELRNATDRYIDLNDIRDQIEKT | not soluble |
